Test results: publication PMC7609953, “Expression, Purification, Refolding, and Characterization of a Neverland Protein From Caenorhabditis elegans” (Frontiers in Bioengineering and Biotechnology, 2020)

Target: the molecule itself
Experiment: SEC; Superdex200 Increase 10/300 GL, 20 mM Tris-HCl, 150 mM NaCl, 1 mM DTT, pH 8.0, 1 ml/min; aldolase (158 kDa) and conalbumin (75 kDa) as calibration proteins; oligomeric state of the refolded protein

B1: Refolded His-tagged neverland protein from Caenorhabditis elegans (His_CeNVD) (enzyme)
chain: RQLERLKLLRRVGDMPPVFPNGWYCVCESEKLANNQIMEITVLGQFLSLIRSESGAVYITDSYCPHIGANFNIGGRVVRDNCIQCPFHGWIFSAETGKCVEVPYDEGRIPEQAKVTTWPCIERNNNIYLWYHCDGAEPEWEIPEITEITDGFWHLGGRTEHEVMCHIQEIPENGADIAHLNYLHKSAPPVTKGSDIIKTDLSDPQPAVQHVWDGKWEVKSEEDRHCGVMHLNQFMTFWGYKVPLTSSKLVAEQHGPGIVHMLFDFGIWGKGVVFQTVTPEEALLQRVRFRIFSNIPWFFVKFFMTVEAMQFERDVFIWSNKKYIKSPLLVKNDGPIQKHRRWFSQFYTENSPKMLKDGSLSNQAKSIFDW
For B1, the “stoichiometry N” value was 3.
